According to patent US20160113911A1, “METHODS AND COMPOSITIONS FOR THE TREATMENT OF CANCER” (THE GENERAL HOSPITAL CORPORATION, priority 2013, published 2016):
Residue numbers refer to the chain shown, from its start. In names and notes the source's numbering stands.

B1: 2A-V743I*: KDM4A mutation (protein, UniProt O75164 2-1064, looked up, variant V743I)
Lysine-specific demethylase 4A: ASESETLNPSARIMTFYPTMEEFRNFSRYIAYIESQGAHRAGLAKVVPPKEWKPRASYDDIDDLVIPAPIQQLVTGQSGLFTQYNIQKKAMTVREFRKIANSDKYCTPRYSEFEELERKYWKNLTFNPPIYGADVNGTLYEKHVDEWNIGRLRTILDLVEKESGITIEGVNTPYLYFGMWKTSFAWHTEDMDLYSINYLHFGEPKSWYSVPPEHGKRLERLAKGFFPGSAQSCEAFLRHKMTLISPLMLKKYGIPFDKVTQEAGEFMITFPYGYHAGFNHGFNCAESTNFATRRWIEYGKQAVLCSCRKDMVKISMDVFVRKFQPERYKLWKAGKDNTVIDHTLPTPEAAEFLKESELPPRAGNEEECPEEDMEGVEDGEEGDLKTSLAKHRIGTKRHRVCLEIPQEVSQSELFPKEDLSSEQYEMTECPAALAPVRPTHSSVRQVEDGLTFPDYSDSTEVKFEELKNVKLEEEDEEEEQAAAALDLSVNPASVGGRLVFSGSKKKSSSSLGSGSSRDSISSDSETSEPLSCRAQGQTGVLTVHSYAKGDGRVTVGEPCTRKKGSAARSFSERELAEVADEYMFSLEENKKSKGRRQPLSKLPRHHPLVLQECVSDDETSEQLTPEEEAEETEAWAKPLSQLWQNRPPNFEAEKEFNETMAQQAPHCAVCMIFQTYHQVEFGGFNQNCGNASDLAPQKQRTKPLIPEMCFTSTGCSTDINLSTPYLEEDGTSILVSCKKCSIRVHASCYGVPPAKASEDWMCSRCSANALEEDCCLCSLRGGALQRANDDRWVHVSCAVAILEARFVNIAERSPVDVSKIPLPRFKLKCIFCKKRRKRTAGCCVQCSHGRCPTAFHVSCAQAAGVMMQPDDWPFVVFITCFRHKIPNLERAKGALQSITAGQKVISKHKNGRFYQCEVVRLTTETFYEVNFDDGSFSDNLYPEDIVSQDCLQFGPPAEGEVVQVRWTDGQVYGAKFVASHPIQMYQVEFEDGSQLVVKRDDVYTLDEELPKRVKSRLSVASDMRFNEIFTEKEVKQEKKRQRVINSRYREDYIEPALYRAIME
B2: 2A-R825H*: KDM4A mutation (protein, UniProt O75164 2-1064, looked up, variant R825H)
Lysine-specific demethylase 4A: B1 Lysine-specific demethylase 4A with I742V, R824H
B3: 2A-R825C*: KDM4A mutation (protein, UniProt O75164 2-1064, looked up, variant R825C)
Lysine-specific demethylase 4A: B1 Lysine-specific demethylase 4A with I742V, R824C
B4: 2A-R765Q: KDM4A mutation (protein)
chain: MASESETLNPSARIMTFYPTMEEFRNFSRYIAYIESQGAHRAGLAKVVPPKEWKPRASYDDIDDLVIPAPIQQLVTGQSGLFTQYNIQKKAMTVREFRKIANSDKYCTPRYSEFEELERKYWKNLTFNPPIYGADVNGTLYEKHVDEWNIGRLRTILDLVEKESGITIEGVNTPYLYFGMWKTSFAWHTEDMDLYSINYLHFGEPKSWYSVPPEHGKRLERLAKGFFPGSAQSCEAFLRHKMTLISPLMLKKYGIPFDKVTQEAGEFMITFPYGYHAGFNHGFNCAESTNFATRRWIEYGKQAVLCSCRKDMVKISMDVFVRKFQPERYKLWKAGKDNTVIDHTLPTPEAAEFLKESELPPRAGNEEECPEEDMEGVEDGEEGDLKTSLAKHRIGTKRHRVCLEIPQEVSQSELFPKEDLSSEQYEMTECPAALAPVRPTHSSVRQVEDGLTFPDYSDSTEVKFEELKNVKLEEEDEEEEQAAAALDLSVNPASVGGRLVFSGSKKKSSSSLGSGSSRDSISSDSETSEPLSCRAQGQTGVLTVHSYAKGDGRVTVGEPCTRKKGSAARSFSERELAEVADEYMFSLEENKKSKGRRQPLSKLPRHHPLVLQECVSDDETSEQLTPEEEAEETEAWAKPLSQLWQNRPPNFEAEKEFNETMAQQAPHCAVCMIFQTYHQVEFGGFNQNCGNASDLAPQKQRTKPLIPEMCFTSTGCSTDINLSTPYLEEDGTSILVSCKKCSVRVHASCYGVPPAKASEDWMCSQCSANALEEDCCLCSLRGGALQRANDDRWVHVSCAVAILEARFVNIAERSPVDVSKIPLPRFKLKCIFCKKRRKRTAGCCVQCSHGRCPTAFHVSCAQAAGVMMQPDDWPFVVFITCFRHKIPNLERAKGALQSITAGQKVISKHKNGRFYQCEVVRLTTETFYEVNFDDGSFSDNLYPEDIVSQDCLQFGPPAEGEVVQVRWTDGQVYGAKFVASHPIQMYQVEFEDGSQLVVKRDDVYTLDEELPKRVKSRLSVASDMRFNEIFTEKEVKQEKKRQRVINSRYREDYIEPALYRAIME
B5: 2A-E23K: KDM4A mutation (protein)
chain: B4 chain with E23K, Q765R
B6: 2A-S28N: KDM4A mutation (protein)
chain: B4 chain with S28N, Q765R
B7: 2A-V1003A: KDM4A mutation (protein)
chain: B4 chain with Q765R, V1003A
B8: 2A-E1032K: KDM4A mutation (protein)
chain: B4 chain with Q765R, E1032K
B9: 2A-D1023Y: KDM4A mutation (protein)
chain: B4 chain with Q765R, D1023Y

System: H3K36me3
Assay: H3K36 demethylase activity of KDM4A variants in transfected cells (immunofluorescence)
Type: cell-based
Set-up: key: + indicates active; − indicates inactive; +/− indicates partial acitivty
Conditions: KDM4A mutations

| Molecule | H3k36 Demethylase Activity |
| --- | --- |
| B1 | + |
| B2 | + |
| B3 | + |
| B4 | − |
| B5 | + |
| B6 | + |
| B7 | + |
| B8 | + |
| B9 | + |

System: H3K9me3
Assay: H3K9 demethylase activity of KDM4 variants in transfected cells
Type: cell-based
Set-up: key: + indicates active; − indicates inactive; +/− indicates partial acitivty
Conditions: KDM4A mutations

| Molecule | H3k9 Demethylase Activity |
| --- | --- |
| B1 | + |
| B2 | + |
| B3 | + |
| B4 | − |
| B5 | + |
| B6 | + |
| B7 | + |
| B8 | + |
| B9 | + |
